Consider one substance from paper PMC13066097.

As usually defined, the stoichiometry N is the number of molecules, sites or subunits per partner or assembly.

The test deals with anti-PcrV scFv conjugated with the mouse IgG1 hinge, CH2 and CH3 domains, scFv-m166-mFc (recombinant protein) (mouse). Put plainly: non-reducing SDS-PAGE with immunoblot. For orientation: In western blotting, separated proteins are transferred to a membrane and probed.

With “anti-PcrV scFv conjugated with the mouse IgG1 hinge, CH2 and CH3 domains, scFv-m166-mFc (recombinant protein) (Fc fusion)”, the stoichiometry N stood at 2.
